Experimental findings from patent US20220154181A1 are described below.

The subject of data set [1] is T1, NHS-Rhodamine labelled recombinant Tma17p (γ-subunit).
T1 sequence: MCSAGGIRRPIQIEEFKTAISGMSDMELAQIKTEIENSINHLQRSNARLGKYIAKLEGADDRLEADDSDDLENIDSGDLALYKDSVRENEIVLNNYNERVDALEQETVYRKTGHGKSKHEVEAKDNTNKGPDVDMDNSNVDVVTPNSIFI
Put plainly: titration of NHS-Rhodamine labelled γ-subunit against ΔTma17p-FAS, native agarose gel, fluorescence of FAS-bound Tma17p quantified.

Data set [2] deals with Saccharomyces cerevisiae type I fatty acid synthase (α6β6, 2.6 MDa) without the γ-subunit (Saccharomyces cerevisiae) (UniProt P19097). In words: cell-based or functional assay.
UniProt P19097, sequence (P19097 whole entry, chain 1 of 2): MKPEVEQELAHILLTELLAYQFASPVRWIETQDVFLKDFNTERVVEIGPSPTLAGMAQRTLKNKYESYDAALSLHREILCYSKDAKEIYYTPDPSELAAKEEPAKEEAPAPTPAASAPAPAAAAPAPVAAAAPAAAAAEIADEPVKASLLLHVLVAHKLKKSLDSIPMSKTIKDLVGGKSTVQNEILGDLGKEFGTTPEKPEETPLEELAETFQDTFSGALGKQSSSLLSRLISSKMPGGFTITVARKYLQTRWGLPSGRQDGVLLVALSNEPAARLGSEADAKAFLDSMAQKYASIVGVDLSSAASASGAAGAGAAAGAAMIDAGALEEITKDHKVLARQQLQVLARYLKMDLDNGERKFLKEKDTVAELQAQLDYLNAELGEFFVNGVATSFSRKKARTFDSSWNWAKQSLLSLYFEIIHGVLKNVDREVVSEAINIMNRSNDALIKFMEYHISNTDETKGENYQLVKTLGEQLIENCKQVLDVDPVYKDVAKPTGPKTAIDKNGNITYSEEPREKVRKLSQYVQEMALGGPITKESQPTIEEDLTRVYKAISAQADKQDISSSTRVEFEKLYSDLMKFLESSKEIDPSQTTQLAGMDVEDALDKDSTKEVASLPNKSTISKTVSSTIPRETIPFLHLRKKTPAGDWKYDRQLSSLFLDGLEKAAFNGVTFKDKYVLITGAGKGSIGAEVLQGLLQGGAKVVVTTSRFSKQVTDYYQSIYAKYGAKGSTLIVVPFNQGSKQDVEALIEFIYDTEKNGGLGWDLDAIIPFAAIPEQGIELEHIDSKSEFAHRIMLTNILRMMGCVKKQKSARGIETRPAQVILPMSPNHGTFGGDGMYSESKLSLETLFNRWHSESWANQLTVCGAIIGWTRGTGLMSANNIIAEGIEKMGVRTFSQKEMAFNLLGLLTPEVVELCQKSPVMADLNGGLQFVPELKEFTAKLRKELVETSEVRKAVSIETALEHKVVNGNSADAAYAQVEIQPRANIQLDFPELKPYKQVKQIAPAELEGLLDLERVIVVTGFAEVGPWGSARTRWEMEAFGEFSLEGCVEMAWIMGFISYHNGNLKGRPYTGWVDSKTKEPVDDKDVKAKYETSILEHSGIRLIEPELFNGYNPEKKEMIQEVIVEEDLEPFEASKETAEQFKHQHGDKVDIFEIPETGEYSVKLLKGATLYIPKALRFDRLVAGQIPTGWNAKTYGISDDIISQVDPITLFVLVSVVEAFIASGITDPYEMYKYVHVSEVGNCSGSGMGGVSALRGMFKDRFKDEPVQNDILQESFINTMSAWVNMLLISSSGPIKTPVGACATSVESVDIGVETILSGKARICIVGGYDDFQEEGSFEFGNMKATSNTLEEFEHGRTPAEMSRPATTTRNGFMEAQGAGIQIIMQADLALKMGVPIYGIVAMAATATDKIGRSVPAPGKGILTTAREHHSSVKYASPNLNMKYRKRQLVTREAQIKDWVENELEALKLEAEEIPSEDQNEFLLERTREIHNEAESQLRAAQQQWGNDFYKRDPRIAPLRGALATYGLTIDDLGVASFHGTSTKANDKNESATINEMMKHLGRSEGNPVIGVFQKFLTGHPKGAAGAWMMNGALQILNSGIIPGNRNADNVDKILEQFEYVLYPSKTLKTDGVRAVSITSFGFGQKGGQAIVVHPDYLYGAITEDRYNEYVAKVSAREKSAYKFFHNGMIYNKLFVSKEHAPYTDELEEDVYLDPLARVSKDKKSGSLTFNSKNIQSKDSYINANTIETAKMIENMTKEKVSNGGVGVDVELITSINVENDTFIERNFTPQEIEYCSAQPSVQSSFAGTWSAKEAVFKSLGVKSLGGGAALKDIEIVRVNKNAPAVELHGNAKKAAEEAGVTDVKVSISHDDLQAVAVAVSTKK
UniProt P19097, sequence (P07149 whole entry, chain 2 of 2, further chain): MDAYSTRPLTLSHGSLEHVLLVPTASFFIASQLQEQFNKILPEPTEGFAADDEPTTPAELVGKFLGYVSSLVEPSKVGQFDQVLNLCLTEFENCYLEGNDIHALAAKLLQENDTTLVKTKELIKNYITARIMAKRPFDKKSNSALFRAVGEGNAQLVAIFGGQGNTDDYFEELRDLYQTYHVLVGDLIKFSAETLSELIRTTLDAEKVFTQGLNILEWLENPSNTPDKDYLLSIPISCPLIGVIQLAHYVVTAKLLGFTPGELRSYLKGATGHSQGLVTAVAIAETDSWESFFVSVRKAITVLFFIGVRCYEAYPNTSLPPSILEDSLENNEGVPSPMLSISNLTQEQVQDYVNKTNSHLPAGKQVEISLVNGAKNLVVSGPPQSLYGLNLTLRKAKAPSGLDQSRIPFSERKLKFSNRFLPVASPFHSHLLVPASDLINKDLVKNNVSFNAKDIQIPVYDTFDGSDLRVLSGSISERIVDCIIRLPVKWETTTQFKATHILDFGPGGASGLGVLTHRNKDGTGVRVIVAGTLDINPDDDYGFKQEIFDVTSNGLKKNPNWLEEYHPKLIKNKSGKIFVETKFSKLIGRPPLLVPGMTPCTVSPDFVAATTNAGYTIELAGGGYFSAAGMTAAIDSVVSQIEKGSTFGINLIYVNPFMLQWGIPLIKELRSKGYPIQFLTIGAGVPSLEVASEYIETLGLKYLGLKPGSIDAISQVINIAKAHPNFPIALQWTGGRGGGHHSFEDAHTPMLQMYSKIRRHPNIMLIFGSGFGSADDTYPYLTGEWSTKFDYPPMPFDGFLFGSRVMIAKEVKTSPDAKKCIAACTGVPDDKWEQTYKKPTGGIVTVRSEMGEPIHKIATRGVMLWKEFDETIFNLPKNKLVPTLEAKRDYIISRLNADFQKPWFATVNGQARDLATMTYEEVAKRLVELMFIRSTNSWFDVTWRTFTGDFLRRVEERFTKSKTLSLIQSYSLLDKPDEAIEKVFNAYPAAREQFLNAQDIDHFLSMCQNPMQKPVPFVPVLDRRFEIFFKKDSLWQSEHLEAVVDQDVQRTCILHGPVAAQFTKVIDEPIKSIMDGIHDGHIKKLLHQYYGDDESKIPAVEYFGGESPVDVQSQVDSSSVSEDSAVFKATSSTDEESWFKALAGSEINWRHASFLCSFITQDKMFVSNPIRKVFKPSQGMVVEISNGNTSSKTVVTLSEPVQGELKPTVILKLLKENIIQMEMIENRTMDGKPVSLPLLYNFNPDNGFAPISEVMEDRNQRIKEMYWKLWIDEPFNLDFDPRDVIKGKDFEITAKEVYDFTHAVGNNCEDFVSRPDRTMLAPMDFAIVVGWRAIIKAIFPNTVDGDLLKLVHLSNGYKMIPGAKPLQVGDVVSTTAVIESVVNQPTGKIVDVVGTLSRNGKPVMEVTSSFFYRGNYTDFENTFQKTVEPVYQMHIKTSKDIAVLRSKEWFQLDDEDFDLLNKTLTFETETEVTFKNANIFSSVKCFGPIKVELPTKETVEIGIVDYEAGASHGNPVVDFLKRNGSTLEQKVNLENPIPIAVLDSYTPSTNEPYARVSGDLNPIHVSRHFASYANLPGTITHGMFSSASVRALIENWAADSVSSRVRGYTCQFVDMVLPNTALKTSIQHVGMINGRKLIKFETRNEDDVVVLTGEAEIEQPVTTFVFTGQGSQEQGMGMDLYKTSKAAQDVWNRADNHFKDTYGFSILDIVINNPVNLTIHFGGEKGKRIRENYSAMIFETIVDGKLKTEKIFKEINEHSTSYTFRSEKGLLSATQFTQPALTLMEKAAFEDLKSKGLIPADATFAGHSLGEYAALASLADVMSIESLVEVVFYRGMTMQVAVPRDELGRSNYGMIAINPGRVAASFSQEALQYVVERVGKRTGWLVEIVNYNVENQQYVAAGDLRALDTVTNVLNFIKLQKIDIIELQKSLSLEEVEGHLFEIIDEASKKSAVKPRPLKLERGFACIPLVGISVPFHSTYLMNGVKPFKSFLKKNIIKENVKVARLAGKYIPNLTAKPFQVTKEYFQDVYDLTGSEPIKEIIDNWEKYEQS

For the molecule “Saccharomyces cerevisiae type I fatty acid synthase (α6β6, 2.6 MDa) without the γ-subunit”, the “K0.5 (Hill equation)” value in data set [1] is “K0.5=2.1±0.2 µM”.

B1: Tma17p, the gamma-subunit of the yeast fatty acid synthase (TMA 17 molecule from Saccharomyces cerevisiae) (protein)
chain: MCSAGGIRRPIQIEEFKTAISGMSDMELAQIKTEIENSINHLQRSNARLGKYIAKLEGADDRLEADDSDDLENIDSGDLALYKDSVRENEIVLNNYNERVDALEQETVYRKTGHGKSKHEVEAKDNTNKGPDVDMDNSNVDVVTPNSIFI
Take B1: in data set [2], the KMapp for NADPH, steady-state kinetics of the FAS holoenzyme (saturating γ-subunit) was 155 µM; the fold decrease of affinity for acetyl-CoA, steady-state kinetics was found to be 2 fold; the fold decrease of affinity for malonyl-CoA, steady-state kinetics was found to be 4 fold; the fold reduction in the binding affinity for NADPH, steady-state kinetics is 15 fold. Further, in data set [2], the percent of selected cryo-EM particles in the rotated state, at a 6-fold excess of the γ-subunit worked out at 88% and the percent of selected cryo-EM particles in the rotated state, at a 12-fold molar excess of the γ-subunit was 95%.
